B1: Tyrosine-protein phosphatase non-receptor type 23 (Mus musculus), Q6PB44 (parent)
chain: MEAVPRMPMIWLDLKEAGDFHFQSAVKKFVLKNYGENPEAYNEELKKLELLRQNAIRVARDFEGCSVLRKYLGQLHYLQSRVPMGSGQEAAVAVTWTEIFSGKSVSHEDIKYEQACILYNLGALHSMLGAMDKRVSEEGMKVSCTHFQCAAGAFAYLREHFPQAFSVDMSRQILTLNVNLMLGQAQECLLEKSMLDNRKSFLVARISAQVVDYYKEACRALENPDTASLLGRIQKDWKKLVQMKIYYFAAVAHLHMGKQAEEQQKFGERVAYFQSALDKLNEAIKLAKGQPDTVQDALRFAMDVIGGKYNSAKKDNDFIYHEAVPALDTLQPVKGAPLVKPLPVNPTDPAVTGPDIFAKLVPMAAHEASSLYSEEKAKLLREMLAKIEDKNEVLDQFMDSMQLDPETVDNLDAYNHIPPQLMEKCAALSVRPDTVKNLVQSMQVLSGVFTDVEASLKDIRDLLEEDELQEQKLQETLGQAGAGPGPSVAKAELAEVRREWAKYMEVHEKASFTNSELHRAMNLHVGNLRLLSGPLDQVRAALPTPALTPEDKAVLQNLKRILAKVQEMRDQRVSLEQQLRELIQKDDITASLVTTDHSEMKKLFEEQLKKYDQLKVYLEQNLAAQDNVLRALTEANVQYAAVRRVLSELDQKWNSTLQTLVASYEAYEDLMKKSQEGKDFYADLESKVATLLERAQSICRAQEAARQQLLDRELKKKAPPPRPTAPKPLLSRREEGEAVEAGDTPEELRSLPPDMMVGPRLPDPFLGTTAPLHFSPGPFPSSTGPATHYLSGPLPPGTYSGPTQLMQPRAAVPMAPATVLYPAPAYTSELGLVPRSSPQHGIVSSPYAGVGPPQPVVGLPSAPPPQLSGPELAMTVRPATTTVDSVQAPISSHTAPRPNPTPALPQPCFPVPQPVPQSVPQPQPLPVPYTYSIGTKQPLPAPYTYSIGTKQHLTGPLPQHQFPPGIPTGFPVPRTGPQAQAQPQPQPQPQPQPQPQPQPQPQPQSQSQPQPQPQPQPQRPAFGPQPTQQPLPFQHPHLFPSQAPGILPPPPPTPYHFTPQPGVLGQPPPTLHTQLYPGPSQDPLPPHSGALPFPSPGPPHPHPTLAYGPAPSPRPLGPQATPVSIRGPPPASQPTPSPHLVPSPAPSPGPGPVPSRPPTAEPPPCLRRGAAAADLLSSSPESQHGGTQPPGGGQPLLQPTKVDAAEGRRPQALRLIEQDPYEHPERLQQLQQELEAFRGQLGDAGALDAIWRELQEAQEHDARGRSIAIARCYSLKNRHQDVMPYDSNRVVLRSGKDDYINASCVEGLSPYCPPLVATQAPLPGTAADFWLMVHEQKVSVIVMLVSEAEMEKQKVARYFPTERGQPMVHGALSVALSSIRTTETHVERVLSLQFRDQSLKRSLVHLHFPTWPELGLPDSPGNLLRFIQEVHAHYLHQRPLHTPIVVHCSSGVGRTGAFALLYAAVQEVEAGNGIPELPQLVRRMRQQRKHMLQEKLHLKFCHEALVRHVEQVLQRHGVPPPGKPVASVNISQKNHLPQDSQDLVLGGDVPISSIQATIAKLSIRPLGGLDSPAASLPGLVEPPGLPPASLPESTPVPSSSPPPLSSPLPEAPQPEEEPSVPEAPSLGPPSSSLELLASLTPEAFSLDSSLRGKQRMSKQNFLQAHNGQGLRAAQPTDDPLSLLDPLWTLNKT
partner: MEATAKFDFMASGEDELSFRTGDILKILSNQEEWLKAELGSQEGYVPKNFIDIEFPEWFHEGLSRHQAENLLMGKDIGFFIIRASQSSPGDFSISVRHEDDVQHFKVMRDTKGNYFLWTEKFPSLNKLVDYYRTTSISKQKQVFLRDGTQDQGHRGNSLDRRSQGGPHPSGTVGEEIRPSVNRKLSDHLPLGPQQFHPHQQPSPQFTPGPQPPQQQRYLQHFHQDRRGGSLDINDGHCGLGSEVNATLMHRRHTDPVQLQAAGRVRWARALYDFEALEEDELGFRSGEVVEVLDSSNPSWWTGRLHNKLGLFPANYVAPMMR

Variants of B1 are the subject of the experiment. The note with it: with grap2_mouse Grap2, O89100.
Consider K727H, for which the “effect of a mutation on the interaction” value is given as “decreasing interaction strength”. The same measure for K727A: “decreasing interaction strength”; for K727A;P728A: “disrupting interaction strength”; for P720A;R722A: “disrupting interaction”. Then R722A, with “decreasing interaction”.
